Experimental findings from paper PMC6300308, “Linear Eyring Plots Conceal a Change in the Rate-Limiting Step in an Enzyme Reaction” (Biochemistry, 2018) are described below.

Read-outs that look alike come from different tables or passages of the source.

One data set deals with T1, PaHBDH (Psychrobacter arcticus, UniProt Q4FRT2).
T1 construct: gene Psyc_1428; recombinant purified enzyme; cloning details only in supplement
T1 sequence (Q4FRT2 1-266): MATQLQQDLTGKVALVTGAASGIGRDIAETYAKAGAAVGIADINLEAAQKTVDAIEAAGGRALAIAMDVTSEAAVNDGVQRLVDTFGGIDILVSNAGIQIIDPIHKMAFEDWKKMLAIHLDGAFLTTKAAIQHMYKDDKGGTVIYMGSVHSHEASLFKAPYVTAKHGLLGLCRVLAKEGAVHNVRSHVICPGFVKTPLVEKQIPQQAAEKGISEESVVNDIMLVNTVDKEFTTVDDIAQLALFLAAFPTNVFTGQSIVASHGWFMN
Description: stopped-flow single-turnover kinetics, NADH limiting. Particulars: acetoacetate or 3-oxovalerate as co-substrate; 283 and 298 K. The format is biochemical.

In a further data set the target is T2, AbHBDH (Acinetobacter baumannii, UniProt A0A1E3M3N6).
T2 construct: gene AUO97_16470; recombinant purified enzyme; cloning details only in supplement
T2 sequence (A0A1E3M3N6 1-261): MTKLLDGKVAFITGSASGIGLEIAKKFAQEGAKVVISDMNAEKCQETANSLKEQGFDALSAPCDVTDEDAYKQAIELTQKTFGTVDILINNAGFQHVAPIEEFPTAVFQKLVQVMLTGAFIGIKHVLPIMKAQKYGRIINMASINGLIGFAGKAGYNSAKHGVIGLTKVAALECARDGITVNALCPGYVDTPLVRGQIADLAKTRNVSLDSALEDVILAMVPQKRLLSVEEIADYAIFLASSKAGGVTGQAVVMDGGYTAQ
The description is as above. It counts as biochemical. Particulars: acetoacetate or 3-oxovalerate as co-substrate; 283 and 298 K.

Substrate in data set [1]: CC(=O)CC(=O)O
Description: steady-state saturation curves. The format is biochemical, Psychrobacter arcticus. Particulars: co-substrate NADH; 283-318 K; 45.0 °C. An excerpt: (§1) steady-state saturation curves on PaHBDH | We measured saturation curves for AbHBDH and PaHBDH at various temperatures

Substrate in data set [2]: CCC(=O)CC(=O)O
Description: steady-state saturation curves. The format is biochemical, Psychrobacter arcticus. The settings on record: co-substrate NADH; 283-318 K; 45.0 °C.
Source text: as §1

Substrate in data set [3]: NC(=O)C1=CN([C@@H]2O[C@H](COP(=O)(O)OP(=O)(O)OC[C@H]3O[C@@H](n4cnc5c(N)ncnc54)[C@H](O)[C@@H]3O)[C@@H](O)[C@H]2O)C=CC1
Description: purified protein, by the assay type. Further details: steady-state saturation kinetics of NADH-dependent reduction by purified recombinant HBDH, 298 K. From the text:
(§2) We measured saturation curves for AbHBDH and PaHBDH at various temperatures (283–330 K for AbHBDH and 283–318 K for PaHBDH) (Figure S2 and Tables S1–S4). […] Apparent steady-state catalytic constants (kcat) were used to construct Eyring plots for each enzyme (Figure 1). […] Accordingly, a significant negative ΔCp^⧧ is predicted for the psychrophilic enzyme but not for the mesophilic one (Table S6).

Substrate in data set [4]: NC(=O)C1=CN([C@@H]2O[C@H](COP(=O)(O)OP(=O)(O)OC[C@H]3O[C@@H](n4cnc5c(N)ncnc54)[C@H](O)[C@@H]3O)[C@@H](O)[C@H]2O)C=CC1
Description: purified protein, by the assay type. Further details: steady-state saturation kinetics of NADH-dependent reduction by purified recombinant HBDH, 298 K.
Source text: as §2
The source holds these as a separate data set.

Consider `NC(=O)C1=CN([C@@H]2O[C@H](COP(=O)(O)OP(=O)(O)OC[C@H]3O[C@@H](n4cnc5c(N)ncnc54)[C@H](O)[C@@H]3O)[C@@H](O)[C@H]2O)C=CC1` [NADH], for which the “stopped-flow single-turnover kinetics, NADH limiting” value is “demonstrating NADH is saturated with PaHBDH and kSTO is unimolecular” on PaHBDH; “demonstrating NADH is saturated with AbHBDH and kSTO is unimolecular” on AbHBDH.

B1: PaHBDH (Psychrobacter arcticus 273-4) (protein)
chain: MATQLQQDLTGKVALVTGAASGIGRDIAETYAKAGAAVGIADINLEAAQKTVDAIEAAGGRALAIAMDVTSEAAVNDGVQRLVDTFGGIDILVSNAGIQIIDPIHKMAFEDWKKMLAIHLDGAFLTTKAAIQHMYKDDKGGTVIYMGSVHSHEASLFKAPYVTAKHGLLGLCRVLAKEGAVHNVRSHVICPGFVKTPLVEKQIPQQAAEKGISEESVVNDIMLVNTVDKEFTTVDDIAQLALFLAAFPTNVFTGQSIVASHGWFMN
notes: recombinant purified enzyme; cloning details only in supplement
As usually defined, the Km is the concentration of substrate that gives half-maximal velocity. One may read the kcat as the number of substrate molecules converted per active site and unit of time at saturation. By kcat/Km is commonly meant the turnover number divided by the Michaelis constant. Consider B1, for which the Km in data set [1] stood at 0.11 ± 0.01 mM; in data set [2] it was 0.036 ± 0.002 mM; in data set [3], 0.03 ± 0.01 mM; in data set [4], 3.4 ± 0.4 µM. Moreover, the turnover number (kcat) was determined as 86 ± 4 s⁻¹ in data set [1], 5.9 ± 0.1 s⁻¹ in data set [2], 86 ± 4 s⁻¹ in data set [3] and 5.9 ± 0.1 s⁻¹ in data set [4]. In addition, the values for the kcat/Km in data set [3] and in data set [4] were 2.7e+06 ± 700000 M⁻¹ s⁻¹ and 1.7e+06 ± 800000 M⁻¹ s⁻¹, respectively.
